Results on one molecule are retold here after patent US11370846B2, “Compositions and methods to regulate Renalase in the treatment of cancer” (Yale University, priority 2014, dated 2022).

Entries after “also recorded” stand apart in the source; their conditions may differ.

One data set has as its system p38 MAPK. In words: p38 MAPK phosphorylation in Panc1 cells by western blot. In kind it is cell-based, human. The following applies: beginning at day 1 post treatment. On the procedure: FIG. 26A through FIG. 26E are a series of images and charts showing that inhibition of RNLS signaling induces apoptosis and cell cycle arrest. […] FIG. 26B is a chart depicting FACS analysis of Panc1 cells in culture treated with either m28-RNLS (30 μg/ml) or 100 μM etoposide (positive control) for 4 days; n=3, * indicates p<0.05. FIG. 26C is an image showing Panc1 cells treated with polyclonal ab31291 or with goat IgG as a negative control, and cells lysates probed for p38 and Bax activation by western blot. […] FIG. 26E is a chart showing the effect of m28-RNLS on cell cycle of Panc1 cells determined by FACS analysis; green curve: no treatment, purple curve: rabbit IgG, red curve: m28-RNLS 30 μg/ml.
On the technique in general: In western blotting, separated proteins are transferred to a membrane and probed.

The next data set concerns STAT3. Kind of data set: STAT3 phosphorylation in Panc1 cells by western blot. Format: cell-based, human. The following applies: antibody treatment for up to 4 days; listed as m28-RNLS. An excerpt:
FIG. 27A through FIG. 27E are a series of images and charts showing the interaction between RNLS and STAT3, and the mechanistic model of inhibition by m28-RNLS. FIG. 27A is an image showing activation of STAT3 by RNLS in Panc1 cells; Panc1 cells in culture treated with either BSA or RNLS, and STAT3 phosphorylation assessed by western blot; p-Ser^727-STAT3: phosphorylation at serine 727, p-Y^705-STAT3: phosphorylation at tyrosine 705; representative study. FIG. 27B is a chart depicting the quantification of STAT3 phosphorylation with RNLS; signals normalized to total STAT3; n=3, *=P<0.05. […] FIG. 27D is a chart showing the quantification of STAT3 phosphorylation with m28-RNLS; signals normalized to GAPDH loading control; n=3, *=P<0.05. FIG. 27E depicts the proposed mechanistic model for antitumor activity of m28-RNLS.

A further data set has as its system A375.S2 melanoma cells. Kind of data set: Cell viability, WST-1, A375.S2 melanoma cells. In kind it is cell-based, human. As to conditions: A375.S2, 72 hrs. As for the experimental part: FIG. 19A through FIG. 19D are a series of images and charts showing that inhibition of RNLS signaling is cytotoxic to melanoma cells in vitro. […] FIG. 19B comprises two charts depicting relative cell viability: Left panel: Cells were treated with indicated antibodies for 72 hrs and cell viability was determined using WST-1; m28-RNLS (also known as 1D-28-4), m37-RNLS (also known as 1D-37-10): monoclonal antibodies raised against RNLS peptide RP220; Right panel: A375.S2 cells treated with increasing doses of m28-RNLS for 72 hrs and cell viability determined with a WST-1 assay; n=6, * indicates p<0.05 and ** indicates p<0.005. FIG. 19C comprises representative photos of A375.S2, SkMe128, and SkMe15 after 72 hrs incubation with either control rabbit IgG or m28-RNLS. FIG. 19D is a chart depicting relative cell viability, comprising amino acid (AA) sequence of RNLS peptide antagonist (RP220A).
For additional studies, cell viability was determined using WST-1 reagent (Roche Diagnostics, Indianapolis, Ind., USA) according to the manufacturers' instruction. Absorbances were read using a microplate reader (Power Waves XS, BioTek Instruments, Winooski, Vt., USA).
(Tetrazolium dyes change colour on reduction, which living cells bring about.)

The test system of data set [1] is renalase-1 and renalase-2. Kind of data set: Renalase isoform specificity of anti-renalase antibodies. Format: binding, human. The following applies: renalase-1 vs renalase-2. As for the experimental part:
Peptides were used as immunogens. The peptides generated ranged from 9 to 21 amino acids and corresponded to regions of the renalase-1 and renalase-2 proteins. […] Each peptide was conjugated to the adjuvant KLH via the cysteine and used to immunize 6 rabbits. Antiserum collected from each animal was screened for anti-renalase antibody titer by ELISA assay using both the relevant peptide (BSA-conjugate) or full length renalase-1 or 2. The antisera were also tested for their ability to detect endogenous renalase in tissue lysates by western blot. Using these screening criteria the animals producing antibodies with the preferred characteristics were selected. In some examples and for some peptides, several animals produced antibodies with the required specificity. […] Polyclonal antibodies raised against all of the peptides were generated by purification of total IgG from terminal bleeds by protein G chromatography followed by further purification on peptide affinity chromatography. Further and using standard procedures, lymphocytes from the spleens of selected animals were fused to myeloma cells for hybridoma generation. The hybridoma supernatants were screened for binding to both the peptides against which they were raised and secondarily screened against whole renalase protein. Selected hybridomas were sub-cloned and expanded for antibody purification. The monoclonal antibodies were purified from conditioned hybridoma culture supernatant by protein A affinity chromatography.

B1: 1D-28-4: rabbit anti-renalase monoclonal raised against peptide RP-220 (antigen 1D); heavy chain SEQ ID NO:9, light chain SEQ ID NO:10 (antibody)
heavy: METGLRWLLLVAVLKGVQCQSVEESGGRLVTPGTPLTLTCTVSGFSLSSFAVGWVRQAPGKGLEYIGIISSVGITRYASWAAGRFTISKTSTTVDLKITSPTTEDTATYFCARYGYSGDVNRLDLWGQGTLVTVSSGQPKAPSVFPLAPCCGDTPSSTVTLGCLVKGYLPEPVTVTWNSGTLTNGVRTFPSVRQSSGLYSLSSVVSVTSSSQPVTCNVAHPATNTKVDKTVAPSTCSKPTCPPPELLGGPSVFIFPPKPKDTLMISRTPEVTCVVVDVSQDDPEVQFTWYINNEQVRTARPPLREQQFNSTIRVVSTLPIAHQDWLRGKEFKCKVHNKALPAPIEKTISKARGQPLEPKVYTMGPPREELSSRSVSLTCMINGFYPSDISVEWEKNGKAEDNYKTTPAVLDSDGSYFLYSKLSVPTSEWQRGDVFTCSVMHEALHNHYTQKSISRSPGK
light: MDTRAPTQLLGLLLLWLPGATFAQVLTQTASPVSAAVGGTVTINCQASQSVYDNNNLAWYQQKPGQPPKQLIYGASTLASGVSSRFKGSGSGTQFTLTISGVQCDDAATYYCLGEFSCSSADCFAFGGGTEVVVKGDPVAPTVLIFPPSADLVATGTVTIVCVANKYFPDVTVTWEVDGTTQTTGIENSKTPQNSADCTYNLSSTLTLTSTQYNSHKEYTCKVTQGTTSVVQSFNRGDC
modifications: oryctolagus cuniculus
For the molecule B1, the “phosphorylation of p38 MAPK” value in the data set with p38 MAPK was “sustained phosphorylation”. In addition, the “p-Y705-STAT3 in Panc1” value with STAT3 was “long-lasting and sustained decrease; also recorded: inhibits STAT3 phosphorylation”. Also, the “cytotoxicity with increasing dose” value with A375.S2 melanoma cells is given as “increasing levels of cytotoxicity in correlation with increasing treatment concentrations”. Also, the renalase isoform specificity entry in data set [1] is “recognize renalase-1 and renalase-2”.
